# Data published in patent publication US20110236390A1 (Janssen / Centocor, published 2011).
# T1: cynomolgus IL-17A (cynomolgus, UniProt Q16552 24-155 (human entry), limits assumed)
# T1 construct: also called cyno IL-17A; cynoIL-17A
# T1 chain: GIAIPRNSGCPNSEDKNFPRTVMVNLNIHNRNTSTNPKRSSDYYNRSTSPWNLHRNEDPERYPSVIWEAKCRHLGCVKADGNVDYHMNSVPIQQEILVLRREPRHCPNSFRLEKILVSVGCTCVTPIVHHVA
# Target: T1, cynomolgus IL-17A
# Assay: competition ELISA: mAb against biotinylated cyno IL-17A binding to coated IL-17RA-Fc
# Protocol: (§1) Clear maxisorp plates were coated with 100 μl/well of 2.5 μg/ml human IL-17RA-Fc (R&D Systems, Minneapolis, Minn.) in 0.1 M sodium carbonate-bicarbonate buffer, pH 9.4 and incubated overnight at 4° C. […] The signal was detected with 100 μl of 1:10,000 dilution of 1 mg/ml SA-HRP (Jackson Immunoresearch, West Grove, Pa.) for 20 minutes at room temperature (RT) followed by 100 μl/well of OPD substrate (Sigma-Aldrich Corp., St. Louis, Mo.).
row,Binder,IC50
1,"MORmAb7700 (antibody, V domains shown) VH: QVQLVESGGGLVQPGGSLRLSCAASGFTFSSYAMSWVRQAPGKGLEWVSTISMTSGFTYYADSVKGRFTISRDNSKNTLYLQMNSLRAEDTAVYYCARQLMLDVWGQGTLVTVSS VL: DIELTQPPSVSVAPGQTARISCSGDNLGDKYANWYQQKPGQAPVLVIYDDIDRPSGIPERFSGSNSGNTATLTISGTQAEDEADYYCGSYDFFLGMIVFGGGTKLTVL",0.236 nM
2,"MORmAb8141 (antibody, V domains shown) VH: QVQLVESGGGLVQPGGSLRLSCAASGFTFSSYAMSWVRQAPGKGLEWVSTISMTSGFTYYADSVKGRFTISRDNSKNTLYLQMNSLRAEDTAVYYCARQLMLDVWGQGTLVTVSS VL: DIELTQPPSVSVAPGQTARISCSGDNLGDKYANWYQQKPGQAPVLVIYDDIDRPSGIPERFSGSNSGNTATLTISGTQAEDEADYYCGSYDFFLGLIVFGGGTKLTVL",1.44 nM
3,"MORmAb7785 (antibody, V domains shown) VH: QVQLVQSGAEVKKPGSSVKVSCKASGGTFSSYAISWVRQAPGQGLEWMGSIIPWFGWTNYAQKFQGRVTITADESTSTAYMELSSLRSEDTAVYYCARDSEYYFDHWGQGTLVTVSS VL: DIQMTQSPSSLSASVGDRVTITCRASQGISNWLNWYQQKPGKAPKLLIYAASSLQSGVPSRFSGSGSGTDFTLTISSLQPEDFAVYYCQQYSDDPTFGQGTKVEIK",0.27 nM
4,"MORmAb7775 (antibody, V domains shown) VH: QVQLQQSGPGLVKPSQTLSLTCAISGDSVSSSSAAWGWIRQSPGRGLEWLGRISYRSKWYNDYAVSVKSRITINPDTSKNQFSLQLNSVTPEDTAVYYCAREVDSMYYSYFDIWGQGTLVTVSS VL: DIVLTQSPATLSLSPGERATLSCRASQNVWAFYLAWYQQKPGQAPRLLIYGASNRATGVPARFSGSGSGTDFTLTISSLEPEDFATYYCTQYYSSPSLTFGQGTKVEIK",0.541 nM
5,"MORmAb7706 (antibody, V domains shown) VH: QVQLQQSGPGLVKPSQTLSLTCAISGDSVSSSSAAWGWIRQSPGRGLEWLGRISYRSKWYNDYAVSVKSRITINPDTSKNQFSLQLNSVTPEDTAVYYCAREVDSMYYSYFDIWGQGTLVTVSS VL: DIVLTQSPATLSLSPGERATLSCRASQNVWAFYLAWYQQKPGQAPRLLIYGASNRATGVPARFSGSGSGTDFTLTISSLEPEDFATYYCQQYRSTLSLTFGQGTKVEIK",0.961 nM
6,"MORmAb8101 (antibody, V domains shown) VH: QVQLQQSGPGLVKPSQTLSLTCAISGDSVSSSSAAWGWIRQSPGRGLEWLGRISYRSKWYNDYAVSVKSRITINPDTSKNQFSLQLNSVTPEDTAVYYCAREVDSIYYSYFDIWGQGTLVTVSS VL: DIVLTQSPATLSLSPGERATLSCRASQNVWAFYLAWYQQKPGQAPRLLIYGASNRATGVPARFSGSGSGTDFTLTISSLEPEDFATYYCTQYYSSPSLTFGQGTKVEIK",0.845 nM

# Next, values leading:
row,IC50,Binder
1,0.198 nM,"MORmAb8095 (antibody, V domains shown) VH: QVQLVESGGGLVQPGGSLRLSCAASGFTFSSYAMSWVRQAPGKGLEWVSTISITSGFTYYADSVKGRFTISRDNSKNTLYLQMNSLRAEDTAVYYCARQLMLDVWGQGTLVTVSS VL: DIELTQPPSVSVAPGQTARISCSGDNLGDKYANWYQQKPGQAPVLVIYDDIDRPSGIPERFSGSNSGNTATLTISGTQAEDEADYYCGSYDFFLGMIVFGGGTKLTVL"
2,0.3 nM,"MORmAb8097 (antibody, V domains shown) VH: QVQLVESGGGLVQPGGSLRLSCAASGFTFSSYAMSWVRQAPGKGLEWVSTISMTSGFTYYADSVKGRFTISRDNSKNTLYLQMNSLRAEDTAVYYCARQLLLDVWGQGTLVTVSS VL: DIELTQPPSVSVAPGQTARISCSGDNLGDKYANWYQQKPGQAPVLVIYDDIDRPSGIPERFSGSNSGNTATLTISGTQAEDEADYYCGSYDFFLGMIVFGGGTKLTVL"
3,0.058 nM,"MORmAb8096 (antibody, V domains shown) VH: QVQLVESGGGLVQPGGSLRLSCAASGFTFSSYAMSWVRQAPGKGLEWVSTISLTSGFTYYADSVKGRFTISRDNSKNTLYLQMNSLRAEDTAVYYCARQLMLDVWGQGTLVTVSS VL: DIELTQPPSVSVAPGQTARISCSGDNLGDKYANWYQQKPGQAPVLVIYDDIDRPSGIPERFSGSNSGNTATLTISGTQAEDEADYYCGSYDFFLGMIVFGGGTKLTVL"
4,0.252 nM,"MORmAb8143 (antibody, V domains shown) VH: QVQLVESGGGLVQPGGSLRLSCAASGFTFSSYAMSWVRQAPGKGLEWVSTISMTSGFTYYADSVKGRFTISRDNSKNTLYLQMNSLRAEDTAVYYCARQLMLDVWGQGTLVTVSS VL: DIELTQPPSVSVAPGQTARISCSGDNLGDKYANWYQQKPGQAPVLVIYDDIDRPSGIPERFSGSNSGNTATLTISGTQAEDEADYYCGSYDFFLGYIVFGGGTKLTVL"
5,0.139 nM,"MORmAb8142 (antibody, V domains shown) VH: QVQLVESGGGLVQPGGSLRLSCAASGFTFSSYAMSWVRQAPGKGLEWVSTISMTSGFTYYADSVKGRFTISRDNSKNTLYLQMNSLRAEDTAVYYCARQLMLDVWGQGTLVTVSS VL: DIELTQPPSVSVAPGQTARISCSGDNLGDKYANWYQQKPGQAPVLVIYDDIDRPSGIPERFSGSNSGNTATLTISGTQAEDEADYYCGSYDFFLGTIVFGGGTKLTVL"
6,0.289 nM,"MORmAb8098 (antibody, V domains shown) VH: QVQLVESGGGLVQPGGSLRLSCAASGFTFSSYAMSWVRQAPGKGLEWVSTISMTSGFTYYADSVKGRFTISRDNSKNTLYLQMNSLRAEDTAVYYCARQLTLDVWGQGTLVTVSS VL: DIELTQPPSVSVAPGQTARISCSGDNLGDKYANWYQQKPGQAPVLVIYDDIDRPSGIPERFSGSNSGNTATLTISGTQAEDEADYYCGSYDFFLGMIVFGGGTKLTVL"
7,0.289 nM,"MORmAb7708 (antibody, V domains shown) VH: QVQLVQSGAEVKKPGSSVKVSCKASGGTFSSYAISWVRQAPGQGLEWMGRIIPWFGWTSYAQKFQGRVTITADESTSTAYMELSSLRSEDTAVYYCARDSEYYFDHWGQGTLVTVSS VL: DIQMTQSPSSLSASVGDRVTITCRASQGISNWLNWYQQKPGKAPKLLIYAASSLQSGVPSRFSGSGSGTDFTLTISSLQPEDFAVYYCQQYSDDPTFGQGTKVEIK"
8,0.498 nM,"MORmAb8105 (antibody, V domains shown) VH: QVQLVQSGAEVKKPGSSVKVSCKASGGTFSSYAISWVRQAPGQGLEWMGSIIPWFGYTNYAQKFQGRVTITADESTSTAYMELSSLRSEDTAVYYCARDSEYYFDHWGQGTLVTVSS VL: DIQMTQSPSSLSASVGDRVTITCRASQGISNWLNWYQQKPGKAPKLLIYAASSLQSGVPSRFSGSGSGTDFTLTISSLQPEDFAVYYCQQYSDDPTFGQGTKVEIK"
9,0.306 nM,"MORmAb8104 (antibody, V domains shown) VH: QVQLVQSGAEVKKPGSSVKVSCKASGGTFSSYAISWVRQAPGQGLEWMGSIIPWFGTTNYAQKFQGRVTITADESTSTAYMELSSLRSEDTAVYYCARDSEYYFDHWGQGTLVTVSS VL: DIQMTQSPSSLSASVGDRVTITCRASQGISNWLNWYQQKPGKAPKLLIYAASSLQSGVPSRFSGSGSGTDFTLTISSLQPEDFAVYYCQQYSDDPTFGQGTKVEIK"
10,0.491 nM,"MORmAb8103 (antibody, V domains shown) VH: QVQLQQSGPGLVKPSQTLSLTCAISGDSVSSSSAAWGWIRQSPGRGLEWLGRISYRSKWYNDYAVSVKSRITINPDTSKNQFSLQLNSVTPEDTAVYYCAREVDSTYYSYFDIWGQGTLVTVSS VL: DIVLTQSPATLSLSPGERATLSCRASQNVWAFYLAWYQQKPGQAPRLLIYGASNRATGVPARFSGSGSGTDFTLTISSLEPEDFATYYCTQYYSSPSLTFGQGTKVEIK"
11,0.838 nM,"MORmAb8102 (antibody, V domains shown) VH: QVQLQQSGPGLVKPSQTLSLTCAISGDSVSSSSAAWGWIRQSPGRGLEWLGRISYRSKWYNDYAVSVKSRITINPDTSKNQFSLQLNSVTPEDTAVYYCAREVDSLYYSYFDIWGQGTLVTVSS VL: DIVLTQSPATLSLSPGERATLSCRASQNVWAFYLAWYQQKPGQAPRLLIYGASNRATGVPARFSGSGSGTDFTLTISSLEPEDFATYYCTQYYSSPSLTFGQGTKVEIK"

# Target: T1, cynomolgus IL-17A
# Assay: as above
# Remark: another data set of the same source
# Protocol: as §1
row,IC50,Binder
1,0.054 nM,"mAb3077 (antibody, human IgG1, lambda, V domains shown, Framework-engineered mAb; also called engineered form of MOR7785) VH: QVQLVQSGAEVKKPGSSVKVSCKASGGTFSSYAISWVRQAPGQGLEWMGSIIPWFGWTNYAQKFQGRVTITADESTSTAYMELSSLRSEDTAVYYCARDSEYYFDHWGQGTLVTVSS VL: DIQMTQSPSSVSASVGDRVTITCRASQGISNWLNWYQQKPGKAPKLLIYAASSLQSGVPSRFSGSGSGTDFTLTISSLQPEDFATYYCQQYSDDPTFGQGTKVEIKG"
2,0.051 nM,"mAb624 (antibody, human IgG1, lambda, V domains shown, Framework-engineered mAb; also called engineered form of MOR7708) VH: QVQLVQSGAEVKKPGSSVKVSCKASGGTFSSYAISWVRQAPGQGLEWMGRIIPWFGWTSYAQKFQGRVTITADESTSTAYMELSSLRSEDTAVYYCARDSEYYFDHWGQGTLVTVSS VL: DIQMTQSPSSVSASVGDRVTITCRASQGISNWLNWYQQKPGKAPKLLIYAASSLQSGVPSRFSGSGSGTDFTLTISSLQPEDFATYYCQQYSDDPTFGQGTKVEIKG"
3,0.117 nM,"mAb7024 (antibody, human IgG1, lambda, V domains shown, Framework-engineered mAb; also called engineered form of MOR8104) VH: QVQLVQSGAEVKKPGSSVKVSCKASGGTFSSYAISWVRQAPGQGLEWMGSIIPWFGTTNYAQKFQGRVTITADESTSTAYMELSSLRSEDTAVYYCARDSEYYFDHWGQGTLVTVSS VL: DIQMTQSPSSVSASVGDRVTITCRASQGISNWLNWYQQKPGKAPKLLIYAASSLQSGVPSRFSGSGSGTDFTLTISSLQPEDFATYYCQQYSDDPTFGQGTKVEIKG"

# Target: T1, cynomolgus IL-17A
# Assay: cell-based or functional assay
"IL-6 production (NHDF), IC50","IL-8 production (NHDF), IC50",Binder
0.113 nM,0.374 nM,"mAb3077 (antibody, human IgG1, lambda, V domains shown, Framework-engineered mAb; also called engineered form of MOR7785) VH: QVQLVQSGAEVKKPGSSVKVSCKASGGTFSSYAISWVRQAPGQGLEWMGSIIPWFGWTNYAQKFQGRVTITADESTSTAYMELSSLRSEDTAVYYCARDSEYYFDHWGQGTLVTVSS VL: DIQMTQSPSSVSASVGDRVTITCRASQGISNWLNWYQQKPGKAPKLLIYAASSLQSGVPSRFSGSGSGTDFTLTISSLQPEDFATYYCQQYSDDPTFGQGTKVEIKG"
–,0.192 nM,"mAb624 (antibody, human IgG1, lambda, V domains shown, Framework-engineered mAb; also called engineered form of MOR7708) VH: QVQLVQSGAEVKKPGSSVKVSCKASGGTFSSYAISWVRQAPGQGLEWMGRIIPWFGWTSYAQKFQGRVTITADESTSTAYMELSSLRSEDTAVYYCARDSEYYFDHWGQGTLVTVSS VL: DIQMTQSPSSVSASVGDRVTITCRASQGISNWLNWYQQKPGKAPKLLIYAASSLQSGVPSRFSGSGSGTDFTLTISSLQPEDFATYYCQQYSDDPTFGQGTKVEIKG"
0.999 nM,2.98 nM,"mAb7024 (antibody, human IgG1, lambda, V domains shown, Framework-engineered mAb; also called engineered form of MOR8104) VH: QVQLVQSGAEVKKPGSSVKVSCKASGGTFSSYAISWVRQAPGQGLEWMGSIIPWFGTTNYAQKFQGRVTITADESTSTAYMELSSLRSEDTAVYYCARDSEYYFDHWGQGTLVTVSS VL: DIQMTQSPSSVSASVGDRVTITCRASQGISNWLNWYQQKPGKAPKLLIYAASSLQSGVPSRFSGSGSGTDFTLTISSLQPEDFATYYCQQYSDDPTFGQGTKVEIKG"
